# Test results published in article PMC7201271.
# How the values were obtained:
# [1] = molecular target: Neisseria meningitidis quinol-dependent nitric oxide reductase, wild type (Neisseria meningitidis); assay: native gel or EMSA; blue native PAGE of peak 1 and peak 2 fractions after concentration in 100 kDa cutoff devices; 5 and 10 ug loaded
# [2] = molecular target: NmqNOR-BRIL (Neisseria meningitidis qNOR with apocytochrome b562 fused to its C-terminus) (Neisseria meningitidis); assay: cryo-EM structure; NmqNOR-BRIL peak 1 at 4 mg/ml, no additional buffer components; C2 symmetry, 3.06 A
stoichiometry N [1],Substance,stoichiometry N [2]
2,"Neisseria meningitidis quinol-dependent nitric oxide reductase, wild type (enzyme)",–
–,NmqNOR-BRIL (Neisseria meningitidis qNOR with apocytochrome b562 fused to its C-terminus) (enzyme),2
